Results reported in patent US20230053258A1 (RAMOT AT TEL AVIV UNIVERSITY, published 2023).
Each block holds one binder with its values, some of them ahead of it.

Target: T1, recombinant human wild type insulin degrading enzyme (WT rhIDE) (human, UniProt P14735 42-1019)
T1 construct: also called WT IDE; active IDE
Assay: ELISA on coated WT rhIDE
Experimental: Following 3 washes with PBST, 3,3′,5,5′-tetramethylbenzidine (TMB; eBioscience, San Diego, Calif., USA) was added until color appeared. The reaction was stopped by adding 1 M H₂SO₄, and analyzed using a Spectrafluor plus microplate reader at 450 nm.

EC50: ~1 nM
B1: B1 Inclonal IgG (human IgG1) (antibody, V domains shown)
VH: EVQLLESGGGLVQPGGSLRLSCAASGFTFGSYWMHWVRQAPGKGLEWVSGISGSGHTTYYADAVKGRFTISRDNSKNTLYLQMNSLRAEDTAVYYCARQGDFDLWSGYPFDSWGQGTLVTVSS
VL: DIVLTQSPGTLSLSPGERATLSCRASQSVSSHLAWYQQKPGQAPRLLIYDASNRATGIPDRFSGSGSGTDFTLTISRLEPEDFAVYYCQQYDSYPYTFGQGTKLDIK
notes: also called B1 IgG

EC50: ~1 nM
B2: A9 Inclonal IgG (human IgG1) (antibody, V domains shown)
VH: EVQLLESGGGLVQPGGSLRLSCAASGFTFRSYGMHWVRQAPGRGLEWVSAINSNGDSTYYPDTVKDRFTISRDNSKNTLYLQMNSLRAEDTAVYYCARADYYDSTGYYYHGLDLWGQGTLVTVSS
VL: DIVLTQPPSASGTPGQRVTISCSGSRDNIGKNYVSWYQQLPGTAPKLLIYRNNQRPSGVPDRFSGSKSGTSASLAISGLRSEDEADYYCSSYAGSSVIFGGGTKVTVL
notes: also called A9 IgG; IgG A9
